# Experimental data taken from IntAct's records for PubMed 22424946.
# B1: Ras-related GTP-binding protein D (Homo sapiens), Q9NQL2 (parent)
# chain: MSQVLGKPQPQDEDDAEEEEEEDELVGLADYGDGPDSSDADPDSGTEEGVLDFSDPFSTEVKPRILLMGLRRSGKSSIQKVVFHKMSPNETLFLESTNKICREDVSNSSFVNFQIWDFPGQIDFFDPTFDYEMIFRGTGALIFVIDSQDDYMEALARLHLTVTRAYKVNTDINFEVFIHKVDGLSDDHKIETQRDIHQRANDDLADAGLEKIHLSFYLTSIYDHSIFEAFSKVVQKLIPQLPTLENLLNIFISNSGIEKAFLFDVVSKIYIATDSTPVDMQTYELCCDMIDVVIDISCIYGLKEDGAGTPYDKESTAIIKLNNTTVLYLKEVTKFLALVCFVREESFERKGLIDYNFHCFRKAIHEVFEVRMKVVKSRKVQNRLQKKKRATPNGTPRVLL
# Variants of: B1
# Settings: with sylc_human LARS1, Q9P2J5
# sylc_human LARS1, Q9P2J5, sequence (Q9P2J5 whole entry, looked up): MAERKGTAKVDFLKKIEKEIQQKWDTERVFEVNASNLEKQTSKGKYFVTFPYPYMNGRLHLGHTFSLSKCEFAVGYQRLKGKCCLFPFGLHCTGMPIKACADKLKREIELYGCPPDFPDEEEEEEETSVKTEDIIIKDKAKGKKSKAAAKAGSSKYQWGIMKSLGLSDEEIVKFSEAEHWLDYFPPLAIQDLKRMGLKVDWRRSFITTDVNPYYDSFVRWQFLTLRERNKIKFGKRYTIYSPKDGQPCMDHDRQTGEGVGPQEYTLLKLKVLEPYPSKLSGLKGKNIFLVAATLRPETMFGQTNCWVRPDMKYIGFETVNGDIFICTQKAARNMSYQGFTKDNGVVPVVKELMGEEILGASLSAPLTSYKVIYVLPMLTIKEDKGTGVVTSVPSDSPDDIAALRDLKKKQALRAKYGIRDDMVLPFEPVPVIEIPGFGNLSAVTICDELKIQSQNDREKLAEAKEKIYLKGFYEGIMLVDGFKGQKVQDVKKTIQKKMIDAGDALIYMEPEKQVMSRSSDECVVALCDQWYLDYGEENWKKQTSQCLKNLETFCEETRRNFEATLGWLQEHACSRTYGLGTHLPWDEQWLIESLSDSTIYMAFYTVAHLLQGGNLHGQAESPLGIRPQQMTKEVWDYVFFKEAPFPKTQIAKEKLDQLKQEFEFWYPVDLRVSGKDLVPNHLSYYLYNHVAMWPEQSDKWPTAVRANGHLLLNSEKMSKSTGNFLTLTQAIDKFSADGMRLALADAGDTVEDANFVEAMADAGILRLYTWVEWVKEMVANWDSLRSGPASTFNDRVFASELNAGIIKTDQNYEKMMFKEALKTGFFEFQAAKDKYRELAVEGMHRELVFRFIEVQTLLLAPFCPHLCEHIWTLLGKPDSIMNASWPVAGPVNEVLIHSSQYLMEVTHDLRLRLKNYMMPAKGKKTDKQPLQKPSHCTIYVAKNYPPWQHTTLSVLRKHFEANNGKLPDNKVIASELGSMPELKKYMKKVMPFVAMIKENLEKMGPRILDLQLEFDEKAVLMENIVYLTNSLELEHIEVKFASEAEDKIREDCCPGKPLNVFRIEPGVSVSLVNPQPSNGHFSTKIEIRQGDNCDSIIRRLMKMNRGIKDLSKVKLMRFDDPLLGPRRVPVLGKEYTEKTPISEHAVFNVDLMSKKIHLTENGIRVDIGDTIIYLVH
row,effect of a mutation on the interaction,Variant
1,increasing interaction strength,MSQVLGKPQPQDEDDAEEEEEEDELVGLADYGDGPDSSDADPDSGTEEGVLDFSDPFSTEVKPRILLMGLRRSGKSSIQKVVFHKMSPNETLFLESTNKICREDVSNSSFVNFQIWDFPGLIDFFDPTFDYEMIFRGTGALIFVIDSQDDYMEALARLHLTVTRAYKVNTDINFEVFIHKVDGLSDDHKIETQRDIHQRANDDLADAGLEKIHLSFYLTSIYDHSIFEAFSKVVQKLIPQLPTLENLLNIFISNSGIEKAFLFDVVSKIYIATDSTPVDMQTYELCCDMIDVVIDISCIYGLKEDGAGTPYDKESTAIIKLNNTTVLYLKEVTKFLALVCFVREESFERKGLIDYNFHCFRKAIHEVFEVRMKVVKSRKVQNRLQKKKRATPNGTPRVLL [Q121L]
2,decreasing interaction strength,MSQVLGKPQPQDEDDAEEEEEEDELVGLADYGDGPDSSDADPDSGTEEGVLDFSDPFSTEVKPRILLMGLRRSGKSLIQKVVFHKMSPNETLFLESTNKICREDVSNSSFVNFQIWDFPGQIDFFDPTFDYEMIFRGTGALIFVIDSQDDYMEALARLHLTVTRAYKVNTDINFEVFIHKVDGLSDDHKIETQRDIHQRANDDLADAGLEKIHLSFYLTSIYDHSIFEAFSKVVQKLIPQLPTLENLLNIFISNSGIEKAFLFDVVSKIYIATDSTPVDMQTYELCCDMIDVVIDISCIYGLKEDGAGTPYDKESTAIIKLNNTTVLYLKEVTKFLALVCFVREESFERKGLIDYNFHCFRKAIHEVFEVRMKVVKSRKVQNRLQKKKRATPNGTPRVLL [S77L]
